Patent publication US20090269810
Positions count from the first letter of the chain named.

B1: wild-type human ERp23 (protein)
chain: DRAPLTATAPQLDDEEMYSAHMPAHLRCDACRAVAYQMWQNLAKAETKLHTSNSGGRRELSELVYTDVLDRSCSRNWQDYGVREVDQVKRLTGPGLSEGPEPSISVMVTGGPWPTRLSRTCLHYLGEFGEDQIYEAHQQGRGALEALLCGGPQGACSEKVSATREEL
B2: human ERp23 Cys143Ser mutant (protein)
chain: B1 chain with C121S
B3: human ERp23 Cys50Ser mutant (protein)
chain: B1 chain with C28S
B4: human ERp23 Cys171Ser mutant (protein)
chain: B1 chain with C149S
B5: human ERp23 Cys178Ser mutant (protein)
chain: B1 chain with C156S
B6: human ERp23 Cys50-178Ser mutant (protein)
chain: B1 chain with C28S, C156S
B7: human ERp23 Cys53Ser mutant (protein)
chain: B1 chain with C31S
B8: human ERp23 Cys95Ser mutant (protein)
chain: B1 chain with C73S

Target: HA-tagged mini HC (VH-CH1)

**Q.** How did the “oxidation of the CH1 domain of the mini HC” value (“oxidation” below) turn out when B1 was run?
**A.** The value was “co-expression of wild-type human ERp23 resulted in oxidation of the CH1 domain in a portion of the HC even in the absence of LC”.

**Q.** And the “percentage of the fully oxidized form of the mini HC” value?
**A.** The value was “fully oxidizes ˜24% of the mini HC”.

**Q.** How did the “oxidation” value turn out when B2 was run?
**A.** Its value is “All of the remaining single cysteine mutants had significantly reduced activity, which in most cases was similar to that observed when no ERp23 was co-expressed”.

**Q.** B3 was tested. Which “percentage of the fully oxidized form of the mini HC” value did it give?
**A.** Its value is “showed a similar ability to oxidize the CH1 domain (i.e., 20%)”.

**Q.** With B4 as the protein, how does the “oxidation” value read?
**A.** The value was “All of the remaining single cysteine mutants had significantly reduced activity, which in most cases was similar to that observed when no ERp23 was co-expressed”.

**Q.** With B5 as the protein, how does the “oxidation” value read?
**A.** Its value is “also showed some activity, although it was slightly weaker than that observed with wild-type ERp23 or the Cys50Ser mutant”.

**Q.** How did the “oxidation” value turn out when B6 was run?
**A.** Its value is “only the Cys50-178Ser mutant still retained activity”.

**Q.** How did the “oxidation” value turn out when B7 was run?
**A.** The value was “All of the remaining single cysteine mutants had significantly reduced activity, which in most cases was similar to that observed when no ERp23 was co-expressed”.

**Q.** For B8, which “oxidation” value is on record?
**A.** The value was “All of the remaining single cysteine mutants had significantly reduced activity, which in most cases was similar to that observed when no ERp23 was co-expressed”.
